Measured values: publication PMC4552428, “Distinct Actin and Lipid Binding Sites in Ysc84 Are Required during Early Stages of Yeast Endocytosis” (PLoS ONE, 2015)

Target: Rabbit skeletal muscle actin (rabbit, UniProt P68135 1-377)
Experiment: MST; microscale thermophoresis of Ysc84-Nt with monomeric (G-) actin; conditions not shown (S1 File)
Settings: both partners purified

Kd: 850 nM
B1: 6xHis tagged Ysc84-Nt (wild type, N-terminal YAB domain) (domain or fragment)
chain: MGINNPIPRSLKSETKKAAKVLRSFVKPNQVFGADQVIPPYVLKRAKGLAIITVLKAGFLFSGRAGSGVIVARLKDGTWSAPSAIAMAGAGAGGMVGVELTDFVFILNSEEAVRSFSEFGTITLGGNVSVSAGPLGRSAEAAASASTGGVSAVFAYSKSKGLFAGVSVEGSAILERREANRKFYGDNCTSKMILSGRVKVPPAADPLLRILESRAFNF
notes: The His tag was detected on this protein on PIP strips; no cleavage is described; also called Ysc84-Nt WT; wild-type Ysc84-Nt; source: E. coli BL21 DE3, purified (HisTrap HP nickel column)
